Literature values as cited in PMC12692597.

Molecular target: IL-13 (Homo sapiens) (UniProt P35225)
Chain of UniProt P35225 (P35225 25-146): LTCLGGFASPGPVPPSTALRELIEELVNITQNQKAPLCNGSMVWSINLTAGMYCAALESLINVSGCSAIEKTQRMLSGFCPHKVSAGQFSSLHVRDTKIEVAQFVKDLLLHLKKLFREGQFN

Kd: 0.02 nM
Substance: IL-13Rα2 (from UniProt Q14627)
